Measured values reported in the supplement of paper PMC9112550, “Optimization of the antimicrobial peptide Bac7 by deep mutational scanning” (BMC Biology, 2022).

Test system: Escherichia coli TOP10
Experiment: shrunken log2 fold change of peptide-encoding DNA abundance (4.5 h post-induction vs induction); higher = less antimicrobial activity (less host growth inhibition)
Details: time post-induction: 4.5 h; library: site-saturation at positions 5, 18, 19, 20
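Also: peptides expressed intracellularly from a pBAD plasmid library in pooled LB shake-flask culture, induced with 0.3% L-arabinose, DNA abundance read by NGS, three biological replicates, DESeq2 with apeglm shrinkage.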

RRIRTRPPRLPRPRPRPRLMPRP
shrunken log2 fold change: 0.119

RRIRHRPPRLPRPRPRPLSCPRP
shrunken log2 fold change: -0.287

RRIRVRPPRLPRPRPRPQNAPRP
shrunken log2 fold change: 0.00238

RRIRKRPPRLPRPRPRPYHKPRP
shrunken log2 fold change: 0.0411

RRIRARPPRLPRPRPRPAWPPRP
shrunken log2 fold change: 0.582

RRIRNRPPRLPRPRPRPGVKPRP
shrunken log2 fold change: -0.117

RRIRWRPPRLPRPRPRPLNMPRP
shrunken log2 fold change: -0.832

RRIRQRPPRLPRPRPRPRRLPRP
shrunken log2 fold change: 0.752

RRIRFRPPRLPRPRPRPYIKPRP
shrunken log2 fold change: -1.28

RRIRKRPPRLPRPRPRPEIEPRP
shrunken log2 fold change: 2.58

RRIRTRPPRLPRPRPRPPISPRP
shrunken log2 fold change: 0.075

RRIRNRPPRLPRPRPRPCMWPRP
shrunken log2 fold change: -0.0288

RRIRCRPPRLPRPRPRPDCDPRP
shrunken log2 fold change: -0.812

RRIRSRPPRLPRPRPRPWLRPRP
shrunken log2 fold change: -0.241

RRIRFRPPRLPRPRPRPLYDPRP
shrunken log2 fold change: -0.358

RRIRCRPPRLPRPRPRPCVVPRP
shrunken log2 fold change: -0.474

RRIRCRPPRLPRPRPRPNKCPRP
shrunken log2 fold change: -0.279

RRIRWRPPRLPRPRPRPVIDPRP
shrunken log2 fold change: 0.373

RRIRARPPRLPRPRPRPCREPRP
shrunken log2 fold change: 0.0197

RRIRIRPPRLPRPRPRPCALPRP
shrunken log2 fold change: 0.00316

RRIRMRPPRLPRPRPRPLHQPRP
shrunken log2 fold change: 0.0887

RRIRWRPPRLPRPRPRPSRVPRP
shrunken log2 fold change: 0.253

RRIRLRPPRLPRPRPRPMSGPRP
shrunken log2 fold change: -0.0068

RRIRCRPPRLPRPRPRPGCRPRP
shrunken log2 fold change: 0.569

RRIRPRPPRLPRPRPRPNREPRP
shrunken log2 fold change: 0.026

RRIRARPPRLPRPRPRPHFNPRP
shrunken log2 fold change: 0.122

RRIRYRPPRLPRPRPRPLWLPRP
shrunken log2 fold change: 0.0113

RRIRERPPRLPRPRPRPENNPRP
shrunken log2 fold change: -0.27

RRIRRRPPRLPRPRPRPEMIPRP
shrunken log2 fold change: -0.00643

RRIRCRPPRLPRPRPRPEVTPRP
shrunken log2 fold change: -0.0149

RRIRDRPPRLPRPRPRPFYWPRP
shrunken log2 fold change: -0.0675

RRIRERPPRLPRPRPRPIVVPRP
shrunken log2 fold change: -0.29

RRIRWRPPRLPRPRPRPLCRPRP
shrunken log2 fold change: 0.17

RRIRDRPPRLPRPRPRPRTNPRP
shrunken log2 fold change: -0.179

RRIRMRPPRLPRPRPRPDDSPRP
shrunken log2 fold change: 0.175

RRIRQRPPRLPRPRPRPCQSPRP
shrunken log2 fold change: -0.0019

RRIRCRPPRLPRPRPRPTLNPRP
shrunken log2 fold change: -0.232

RRIRVRPPRLPRPRPRPYCNPRP
shrunken log2 fold change: -0.501

RRIRTRPPRLPRPRPRPSGMPRP
shrunken log2 fold change: -0.34

RRIRCRPPRLPRPRPRPCLCPRP
shrunken log2 fold change: -0.185

RRIRRRPPRLPRPRPRPSDIPRP
shrunken log2 fold change: -1.08

RRIRNRPPRLPRPRPRPGVHPRP
shrunken log2 fold change: 0.25

RRIRDRPPRLPRPRPRPDHMPRP
shrunken log2 fold change: -0.0107

RRIRLRPPRLPRPRPRPTFIPRP
shrunken log2 fold change: -0.528

RRIRMRPPRLPRPRPRPPLGPRP
shrunken log2 fold change: 1.08

RRIRVRPPRLPRPRPRPDNAPRP
shrunken log2 fold change: -0.501

RRIRFRPPRLPRPRPRPMDQPRP
shrunken log2 fold change: -0.247

RRIRPRPPRLPRPRPRPWRVPRP
shrunken log2 fold change: 0.244

RRIRTRPPRLPRPRPRPSEVPRP
shrunken log2 fold change: 0.0146

RRIRVRPPRLPRPRPRPSRGPRP
shrunken log2 fold change: 0.413
